Assay results from the supplement of paper PMC5998384.

Experiments:
HeLa Kyoto [1] = assay: thermal stability score vs G1/S (z-score of summed log2 fold changes over temperatures); higher = more thermally stable than in G1/S
HeLa Kyoto [2] = assay: solubility change mitosis vs G1/S (difference of NP-40 vs SDS log2 ratios) (log2 ratio difference); higher = more soluble in mitosis
HeLa Kyoto [3] = assay: solubility in G1/S (NP-40 vs SDS abundance) (log2 ratio); higher = more soluble; conditions: cell cycle stage: G1/S
HeLa Kyoto [4] = assay: melting temperature (median over replicates), in situ; higher = more thermally stable
[5] = cell cycle stage: early G1 (4.5 h after nocodazole release)
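Throughout, for melting temperature (median over replicates), in situ: HeLa Kyoto cells synchronized by double thymidine or nocodazole block, proteins quantified by TMT10plex mass spectrometry, three independent biological replicates.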
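Throughout, for solubility change mitosis vs G1/S (difference of NP-40 vs SDS log2 ratios): synchronized HeLa Kyoto cells (double thymidine block for G1/S, nocodazole release for mitosis), protein amounts in NP-40 versus SDS lysates quantified by mass spectrometry, three biological replicates.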
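Throughout, for solubility in G1/S (NP-40 vs SDS abundance): HeLa Kyoto cells arrested at G1/S by double thymidine block, proteins quantified by TMT10plex mass spectrometry in mild NP-40 versus SDS extracts, three biological replicates.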
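Throughout, for thermal stability score vs G1/S (z-score of summed log2 fold changes over temperatures): synchronized HeLa Kyoto cells, proteins quantified by TMT10plex mass spectrometry, three biological replicates, mitosis taken 0.5 h after nocodazole release, G1/S directly after double thymidine block.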

Row | Sequence | thermal stability score (HeLa Kyoto [1]; [5]) | thermal stability score (HeLa Kyoto [1]; cell cycle stage: mitosis) | solubility change mitosis (log2) (HeLa Kyoto [2]) | solubility in G1/S (log2) (HeLa Kyoto [3]) | melting temperature (HeLa Kyoto [4]; cell cycle stage: G1/S) [°C] | melting temperature (HeLa Kyoto [4]; cell cycle stage: mitosis) [°C]
1 | MAVSAGSARTSPSSDKVQKDKAELISGPRQDSRIGKLLGFEWTDLSSWRRLVTLLNRPTDPASLAVFRFLFGFLMVLDIPQERGLSSLDRKYLDGLDVCRFPLLDALRPLPLDWMYLVYTIMFLGALGMMLGLCYRISCVLFLLPYWYVFLLDKTSWNNHSYLYGLLAFQLTFMDANHYWSVDGLLNAHRRNAHVPLWNYAVLRGQIFIVYFIAGVKKLDADWVEGYSMEYLSRHWLFSPFKLLLSEELTSLLVVHWGGLLLDLSAGFLLFFDVSRSIGLFFVSYFHCMNSQLFSIGMFSYVMLASSPLFCSPEWPRKLVSYCPRRLQQLLPLKAAPQPSVSCVYKRSRGKSGQKPGLRHQLGAAFTLLYLLEQLFLPYSHFLTQGYNNWTNGLYGYSWDMMVHSRSHQHVKITYRDGRTGELGYLNPGVFTQSRRWKDHADMLKQYATCLSRLLPKYNVTEPQIYFDIWVSINDRFQQRIFDPRVDIVQAAWSPFQRTSWVQPLLMDLSPWRAKLQEIKSSLDNHTEVVFIADFPGLHLENFVSEDLGNTSIQLLQGEVTVELVAEQKNQTLREGEKMQLPAGEYHKVYTTSPSPSCYMYVYVNTTELALEQDLAYLQELKEKVENGSETGPLPPELQPLLEGEVKGGPEPTPLVQTFLRRQQRLQEIERRRNTPFHERFFRFLLRKLYVFRRSFLMTCISLRNLILGRPSLEQLAQEVTYANLRPFEAVGELNPSNTDSSHSNPPESNPDPVHSEF [GGCX] | -1.48 | -3.01 | -0.054 | 0.0675 | 53 | 53.1
2 | MAVVIRLLGLPFIAGPVDIRHFFTGLTIPDGGVHIIGGEIGEAFIIFATDEDARRAISRSGGFIKDSSVELFLSSKAEMQKTIEMKRTDRVGRGRPGSGTSGVDSLSNFIESVKEEASNSGYGSSINQDAGFHTNGTGHGNLRPRKTRPLKAENPYLFLRGLPYLVNEDDVRVFFSGLCVDGVIFLKHHDGRNNGDAIVKFASCVDASGGLKCHRSFMGSRFIEVMQGSEQQWIEFGGNAVKEGDVLRRSEEHSPPRGINDRHFRKRSHSKSPRRTRSRSPLGFYVHLKNLSLSIDERDLRNFFRGTDLTDEQIRFLYKDENRTRYAFVMFKTLKDYNTALSLHKTVLQYRPVHIDPISRKQMLKFIARYEKKRSGSLERDRPGHVSQKYSQEGNSGQKLCIYIRNFPFDVTKVEVQKFFADFLLAEDDIYLLYDDKGVGLGEALVKFKSEEQAMKAERLNRRRFLGTEVLLRLISEAQIQEFGVNFSVMSSEKMQARSQSRERGDHSHLFDSKDPPIYSVGAFENFRHQLEDLRQLDNFKHPQRDFRQPDRHPPEDFRHSSEDFRFPPEDFRHSPEDFRRPREEDFRRPSEEDFRRPWEEDFRRPPEDDFRHPREEDWRRPLEEDWRRPLEEDFRRSPTEDFRQLPEEDFRQPPEEDLRWLPEEDFRRPPEEDWRRPPEEDFRRPLQGEWRRPPEDDFRRPPEEDFRHSPEEDFRQSPQEHFRRPPQEHFRRPPPEHFRRPPPEHFRRPPPEHFRRPPPEHFRRPPPEHFRRPPPEHFRRPPQEHFRRPPQEHFRRSREEDFRHPPDEDFRGPPDEDFRHPPDEDFRSPQEEDFRCPSDEDFRQLPEEDLREAPEEDPRLPDNFRPPGEDFRSPPDDFRSHRPFVNFGRPEGGKFDFGKHNMGSFPEGRFMPDPKINCGSGRVTPIKIMNLPFKANVNEILDFFHGYRIIPDSVSIQYNEQGLPTGEAIVAMINYNEAMAAIKDLNDRPVGPRKVKLTLL [RBM12B] | 0.194 | 1.05 | 0.191 | -0.972 | 47.6 | 49.7
3 | MAWALKLPLADEVIESGLVQDFDASLSGIGQELGAGAYSMSDVLALPIFKQEESSLPPDNENKILPFQYVLCAATSPAVKLHDETLTYLNQGQSYEIRMLDNRKLGELPEINGKLVKSIFRVVFHDRRLQYTEHQQLEGWRWNRPGDRILDIDIPMSVGIIDPRANPTQLNTVEFLWDPAKRTSVFIQVHCISTEFTMRKHGGEKGVPFRVQIDTFKENENGEYTEHLHSASCQIKVFKPKGADRKQKTDREKMEKRTPHEKEKYQPSYETTILTECSPWPEITYVNNSPSPGFNSSHSSFSLGEGNGSPNHQPEPPPPVTDNLLPTTTPQEAQQWLHRNRFSTFTRLFTNFSGADLLKLTRDDVIQICGPADGIRLFNALKGRMVRPRLTIYVCQESLQLREQQQQQQQQQQKHEDGDSNGTFFVYHAIYLEELTAVELTEKIAQLFSISPCQISQIYKQGPTGIHVLISDEMIQNFQEEACFILDTMKAETNDSYHIILK [TFCP2] | 0.94 | 2.72 | -0.0306 | -0.0776 | 48.2 | 48.6
4 | MAWTKYQLFLAGLMLVTGSINTLSAKWADNFMAEGCGGSKEHSFQHPFLQAVGMFLGEFSCLAAFYLLRCRAAGQSDSSVDPQQPFNPLLFLPPALCDMTGTSLMYVALNMTSASSFQMLRGAVIIFTGLFSVAFLGRRLVLSQWLGILATIAGLVVVGLADLLSKHDSQHKLSEVITGDLLIIMAQIIVAIQMVLEEKFVYKHNVHPLRAVGTEGLFGFVILSLLLVPMYYIPAGSFSGNPRGTLEDALDAFCQVGQQPLIAVALLGNISSIAFFNFAGISVTKELSATTRMVLDSLRTVVIWALSLALGWEAFHALQILGFLILLIGTALYNGLHRPLLGRLSRGRPLAEESEQERLLGGTRTPINDAS [SLC35F6] | -2.27 | -5.04 | -0.0109 | -0.144 | 60.1 | 56
5 | MAWVLKMDEVIESGLVHDFDASLSGIGQELGAGAYSMSDVLALPIFKQEDSSLPLDGETEHPPFQYVMCAATSPAVKLHDETLTYLNQGQSYEIRMLDNRKMGDMPEINGKLVKSIIRVVFHDRRLQYTEHQQLEGWKWNRPGDRLLDLDIPMSVGIIDTRTNPSQLNAVEFLWDPAKRTSAFIQVHCISTEFTPRKHGGEKGVPFRIQVDTFKQNENGEYTDHLHSASCQIKVFKPKGADRKQKTDREKMEKRTAHEKEKYQPSYDTTILTEMRLEPIIEDAVEHEQKKSSKRTLPADYGDSLAKRGSCSPWPDAPTAYVNNSPSPAPTFTSPQQSTCSVPDSNSSSPNHQGDGASQTSGEQIQPSATIQETQQWLLKNRFSSYTRLFSNFSGADLLKLTKEDLVQICGAADGIRLYNSLKSRSVRPRLTIYVCREQPSSTVLQGQQQAASSASENGSGAPYVYHAIYLEEMIASEVARKLALVFNIPLHQINQVYRQGPTGIHILVSDQMVQNFQDESCFLFSTVKAESSDGIHIILK [UBP1] | -0.25 | -0.0933 | 0.0235 | 0.06 | 50.5 | 48.3
6 | MAYAYLFKYIIIGDTGVGKSCLLLQFTDKRFQPVHDLTIGVEFGARMITIDGKQIKLQIWDTAGQESFRSITRSYYRGAAGALLVYDITRRDTFNHLTTWLEDARQHSNSNMVIMLIGNKSDLESRREVKKEEGEAFAREHGLIFMETSAKTASNVEEAFINTAKEIYEKIQEGVFDINNEANGIKIGPQHAATNATHAGNQGGQQAGGGCC [RAB2A] | -2.08 | -3.49 | -0.118 | -0.194 | 59.9 | 61
7 | MAYNDTDRNQTEKLLKRVRELEQEVQRLKKEQAKNKEDSNIRENSAGAGKTKRAFDFSAHGRRHVALRIAYMGWGYQGFASQENTNNTIEEKLFEALTKTRLVESRQTSNYHRCGRTDKGVSAFGQVISLDLRSQFPRGRDSEDFNVKEEANAAAEEIRYTHILNRVLPPDIRILAWAPVEPSFSARFSCLERTYRYFFPRADLDIVTMDYAAQKYVGTHDFRNLCKMDVANGVINFQRTILSAQVQLVGQSPGEGRWQEPFQLCQFEVTGQAFLYHQVRCMMAILFLIGQGMEKPEIIDELLNIEKNPQKPQYSMAVEFPLVLYDCKFENVKWIYDQEAQEFNITHLQQLWANHAVKTHMLYSMLQGLDTVPVPCGIGPKMDGMTEWGNVKPSVIKQTSAFVEGVKMRTYKPLMDRPKCQGLESRIQHFVRRGRIEHPHLFHEEETKAKRDCNDTLEEENTNLETPTKRVCVDTEIKSII [PUS3] | 0.0981 | -0.181 | -0.169 | 0.0227 | 51.6 | 52.7
8 | MAYQSLRLEYLQIPPVSRAYTTACVLTTAAVQLELITPFQLYFNPELIFKHFQIWRLITNFLFFGPVGFNFLFNMIFLYRYCRMLEEGSFRGRTADFVFMFLFGGFLMTLFGLFVSLVFLGQAFTIMLVYVWSRRNPYVRMNFFGLLNFQAPFLPWVLMGFSLLLGNSIIVDLLGIAVGHIYFFLEDVFPNQPGGIRILKTPSILKAIFDTPDEDPNYNPLPEERPGGFAWGEGQRLGG [DERL2] | -0.206 | -1.33 | -0.0878 | -0.0605 | 54.4 | 
9 | MCAARLAAAAAAAQSVYAFSARPLAGGEPVSLGSLRGKVLLIENVASLUGTTVRDYTQMNELQRRLGPRGLVVLGFPCNQFGHQENAKNEEILNSLKYVRPGGGFEPNFMLFEKCEVNGAGAHPLFAFLREALPAPSDDATALMTDPKLITWSPVCRNDVAWNFEKFLVGPDGVPLRRYSRRFQTIDIEPDIEALLSQGPSCA [GPX1] | 1.13 | -0.307 | -0.15 | 0.559 | 56.8 | 56.6
10 | MCASVKYNIRGPALIPRMKTKHRIYYITLFSIVLLGLIATGMFQFWPHSIESSNDWNVEKRSIRDVPVVRLPADSPIPERGDLSCRMHTCFDVYRCGFNPKNKIKVYIYALKKYVDDFGVSVSNTISREYNELLMAISDSDYYTDDINRACLFVPSIDVLNQNTLRIKETAQAMAQLSRWDRGTNHLLFNMLPGGPPDYNTALDVPRDRALLAGGGFSTWTYRQGYDVSIPVYSPLSAEVDLPEKGPGPRQYFLLSSQVGLHPEYREDLEALQVKHGESVLVLDKCTNLSEGVLSVRKRCHKHQVFDYPQVLQEATFCVVLRGARLGQAVLSDVLQAGCVPVVIADSYILPFSEVLDWKRASVVVPEEKMSDVYSILQSIPQRQIEEMQRQARWFWEAYFQSIKAIALATLQIINDRIYPYAAISYEEWNDPPAVKWGSVSNPLFLPLIPPQSQGFTAIVLTYDRVESLFRVITEVSKVPSLSKLLVVWNNQNKNPPEDSLWPKIRVPLKVVRTAENKLSNRFFPYDEIETEAVLAIDDDIIMLTSDELQFGYEVWREFPDRLVGYPGRLHLWDHEMNKWKYESEWTNEVSMVLTGAAFYHKYFNYLYTYKMPGDIKNWVDAHMNCEDIAMNFLVANVTGKAVIKVTPRKKFKCPECTAIDGLSLDQTHMVERSECINKFASVFGTMPLKVVEHRADPVLYKDDFPEKLKSFPNIGSL [EXT2] | -1.61 | -1.33 | 0.0664 | -0.537 | 54 | 53.4
11 | MCGIFAYLNYHVPRTRREILETLIKGLQRLEYRGYDSAGVGFDGGNDKDWEANACKIQLIKKKGKVKALDEEVHKQQDMDLDIEFDVHLGIAHTRWATHGEPSPVNSHPQRSDKNNEFIVIHNGIITNYKDLKKFLESKGYDFESETDTETIAKLVKYMYDNRESQDTSFTTLVERVIQQLEGAFALVFKSVHFPGQAVGTRRGSPLLIGVRSEHKLSTDHIPILYRTARTQIGSKFTRWGSQGERGKDKKGSCNLSRVDSTTCLFPVEEKAVEYYFASDASAVIEHTNRVIFLEDDDVAAVVDGRLSIHRIKRTAGDHPGRAVQTLQMELQQIMKGNFSSFMQKEIFEQPESVVNTMRGRVNFDDYTVNLGGLKDHIKEIQRCRRLILIACGTSYHAGVATRQVLEELTELPVMVELASDFLDRNTPVFRDDVCFFLSQSGETADTLMGLRYCKERGALTVGITNTVGSSISRETDCGVHINAGPEIGVASTKAYTSQFVSLVMFALMMCDDRISMQERRKEIMLGLKRLPDLIKEVLSMDDEIQKLATELYHQKSVLIMGRGYHYATCLEGALKIKEITYMHSEGILAGELKHGPLALVDKLMPVIMIIMRDHTYAKCQNALQQVVARQGRPVVICDKEDTETIKNTKRTIKVPHSVDCLQGILSVIPLQLLAFHLAVLRGYDVDFPRNLAKSVTVE [GFPT1] | -0.54 | 0.683 | -0.226 | -0.169 | 56.1 | 56.2
